What was measured:
D210A-APE1 [1] = target: T1, D210A-APE1 (Homo sapiens, UniProt P27695 1-318, D210A); assay: fluorescence anisotropy; 140 mM K+; 20 mM Tris pH 7.4, 50 mM KOAc (or 140 mM K+ / 50 mM Li+), 0, 1 or 10 mM Mg(OAc)2, 1 mM DTT, 22 °C, 100 nM FAM-DNA, APE1 0-5000 nM; details: protein: recombinant; tags: His (pET28HIS-hAPE1); label: 5' FAM; intramolecular parallel G4 in K+; unfolded in Li+
APE1 (WT) = APE1 (WT) (Homo sapiens, UniProt P27695 1-318); assay: fluorescence anisotropy; 0 Mg2+, EDTA, 50 mM K+; 20 mM Tris pH 7.4, 50 mM KOAc (or 140 mM K+ / 50 mM Li+), 0, 1 or 10 mM Mg(OAc)2, 1 mM DTT, 22 °C, 100 nM FAM-DNA, APE1 0-5000 nM; details: protein: recombinant; tags: His (pET28HIS-hAPE1, Addgene 70757); label: 5' FAM; intramolecular parallel G4 in K+; unfolded in Li+
D210A-APE1 [2] = target: T1, D210A-APE1; assay: fluorescence anisotropy; 10 mM Mg2+, 50 mM K+; 20 mM Tris pH 7.4, 50 mM KOAc (or 140 mM K+ / 50 mM Li+), 0, 1 or 10 mM Mg(OAc)2, 1 mM DTT, 22 °C, 100 nM FAM-DNA, APE1 0-5000 nM; details: protein: recombinant; tags: His (pET28HIS-hAPE1); label: 5' FAM; intramolecular parallel G4 in K+; unfolded in Li+
Δ33-D210A-APE1 = Δ33-D210A-APE1 (Homo sapiens, UniProt P27695 34-318, D210A;del1-33); assay: as above; details: protein: recombinant; tags: His (pET28HIS-hAPE1); label: 5' FAM; intramolecular parallel G4 in K+; unfolded in Li+
Δ33-D210A-APE1, sequence (P27695 34-318 D210A): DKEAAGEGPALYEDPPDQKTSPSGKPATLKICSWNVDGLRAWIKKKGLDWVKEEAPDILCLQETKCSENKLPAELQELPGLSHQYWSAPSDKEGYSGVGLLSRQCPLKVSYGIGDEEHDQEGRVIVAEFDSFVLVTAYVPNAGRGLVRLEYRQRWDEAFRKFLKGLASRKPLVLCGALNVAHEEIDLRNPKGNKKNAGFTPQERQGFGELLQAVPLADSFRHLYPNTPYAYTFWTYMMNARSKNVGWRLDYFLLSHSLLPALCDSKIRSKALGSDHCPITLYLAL

T1 sequence (P27695 whole entry D210A): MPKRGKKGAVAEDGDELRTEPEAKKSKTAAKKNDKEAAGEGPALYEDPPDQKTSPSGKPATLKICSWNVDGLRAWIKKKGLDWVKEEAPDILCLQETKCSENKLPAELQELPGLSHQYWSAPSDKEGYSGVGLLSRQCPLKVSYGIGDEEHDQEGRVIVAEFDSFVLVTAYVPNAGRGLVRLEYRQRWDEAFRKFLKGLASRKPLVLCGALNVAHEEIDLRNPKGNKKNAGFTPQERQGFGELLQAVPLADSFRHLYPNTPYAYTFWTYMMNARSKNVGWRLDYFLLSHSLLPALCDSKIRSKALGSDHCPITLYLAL
APE1 (WT), sequence (P27695 whole entry): as the sequence (P27695 whole entry D210A) above, with A210D counted along it

CGGGGCGGGCCGGGGGCGGGGT (structured_DNA) [VEGF-4]
Kd (D210A-APE1 [1]): 20 nM
Kd (APE1 (WT)): 190 ± 50 nM
Kd (D210A-APE1 [2]): 55 ± 4 nM
Kd (Δ33-D210A-APE1): 230 ± 40 nM

Reference: article doi:10.1101/2021.08.25.457676, “Binding of AP endonuclease-1 to G-quadruplex DNA depends on the N-terminal domain, Mg2+ and ionic strength”
